“Also recorded” adds a separate entry of the source.
Tests used:
[1] = test system: RAW 264.7 cells; assay: Mechanism of aMTD-mediated uptake (EDTA, proteinase K, taxol, antimycin, temperature; flow cytometry); format: cell-based; conditions: for protein uptake after proteinase K pretreatment: 5 ug/ml proteinase K 10 minutes; for protein uptake after taxol pretreatment: 20 uM taxol 30 minutes
Experimental: The mechanism of basic CPP (TAT and PolyR)-mediated intracellular delivery was also investigated in the same manner as in Example 7-1 and Example 14-2.
(1) RAW 264.7 cells were pretreated with 100 mM EDTA for 3 hours, and then treated with 10 uM of iCP-SOCS3 (HM165S3B) protein for 1 hour, followed by flow cytometry in the same manner as in Example 7-1 (FIG. 51A).
(2) RAW 264.7 cells were pretreated with 5 ug/ml of proteinase K for 10 minutes, and then treated with 10 uM of iCP-SOCS3 (HM165S3B) protein for 1 hour, followed by flow cytometry (FIG. 51B).
(3) RAW 264.7 cells were pretreated with 20 uM taxol for 30 minutes, and then treated with 10 uM of iCP-SOCS3 (HM165S3B) protein for 1 hour, followed by flow cytometry (FIG. 52A).
(4) RAW 264.7 cells were pretreated with 1 mM ATP and 10 uM antimycin singly or in combination for 2 hours, and then treated with 10 uM of iCP-SOCS3 (HM165S3B) protein for 1 hour, followed by flow cytometry (FIG. 52B).
(5) RAW 264.7 cells were left at 4° C. and 37° C. for 1 hour, respectively, and then treated with 10 uM of iCP-SOCS3 (HM165S3B) protein for 1 hour, followed by flow cytometry (FIG. 53).

[2] = test system: Hep3B2.1-7 tumor; assay: Anti-tumor activity in cell-derived xenograft model; format: in vivo, Balb/c nu/nu mice; conditions: IV 600 μg/head for 21 days
Experimental: Female Balb/c^nu/nu mice (5-week-old, Doo-Yeol Biotech Co. Ltd. Korea) were subcutaneously implanted with Hep3B2.1-7 tumor block (1 mm^3) into the left back side of the mouse. […] Tumor size was monitored by measuring the longest (length) and shortest dimensions (width) once a day with a dial caliper, and tumor volume was calculated as width2×length×0.5.

[3] = test system: PANC-1 cells; assay: Apoptotic cell analysis by TUNEL assay in pancreatic carcinoma cells; format: cell-based; conditions: PANC-1, 10 uM
Experimental: PANC-1 cells (pancreatic carcinoma cell line) were seeded in a 16-well chamber slide at a density of 5×10^3 cells/well, and then treated with 10 uM of aMTD/SD-fused SOCS3 for 24 hours. Apoptotic cells were analyzed using terminal dUTP nick-end labeling (TUNEL) assay with In Situ Cell Death Detection kit TMR red (Roche, 4056 Basel, Switzerland). Cells were treated with either 10 μM SOCS3 recombinant protein or buffer alone for 16 hrs with 2% fetal bovine serum (Hyclone, Logan, Utah, USA). Treated cells were washed with cold PBS two times, fixed in 4% paraformaldehyde (PFA, Junsei, Tokyo, Japan) for 1 hr at room temperature, and incubated in 0.1% Triton X-100 for 2 min on the ice. Cells were washed with cold PBS twice, and treated TUNEL reaction mixture for 1 hr at 37° C. in dark, washed cold PBS three times and observed by fluorescence microscopy (Nikon, Tokyo, Japan).

[4] = test system: PANC-1-Luc cells; assay: Tumor targeting in orthotopic pancreatic cancer xenograft model (Alexa680 imaging); format: in vivo, Balb/c nu/nu mice; conditions: IV 40 mg/kg Alexa680-labeled protein; listed as iCP-SOCS3, 40 mg/kg
Experimental: Tumor-targeting of the anticancer agent iCP-SOCS3 (HM165S3B) recombinant proteins was investigated in an orthotopic xenograft model. The protocol was adapted from World J Gastroenterol. 2014 Jul. 28; 20(28): 9476-9485. […] After 7 weeks, the mice were IP injected with 100 μl of luciferin (Sigma-Aldrich, St. Louis, Mo., USA) and imaged by Xenogen IVIS-200 imaging system 15 minute later. As shown in FIG. 88 (A), pancreatic cancer model was well established.
The iCP-SOCS3 recombinant proteins were labeled and IV injected to the mice with 40 mg/kg according to a manual of Alexa680 kit (Thermo Fisher Scientific, San Jose, Calif., USA).

[5] = test system: normal Chang liver cells; assay: Induction of apoptosis, Annexin V/7-AAD staining; format: cell-based, human; conditions: example 20-2
Experimental: (§1) AGS cells (gastric carcinoma cell line) (American Type Culture Collection; ATCC) were seeded in a 12-well plate at a density of 1×10^5 cells/well, and then treated with 10 uM of aMTD/SD-fused SOCS3 for 14 hours. Cancer cell death was analyzed by Annexin V analysis. Annexin V/7-Aminoactinomycin D (7-AAD) staining was performed using flow cytometry according to the manufacturer's guidelines (BD Pharmingen, San Diego, Calif., USA). Briefly, cells were washed three times with ice-cold PBS. The cells were then resuspended in 100 μl of binding buffer and incubated with 1 μl of 7-AAD and 1 μl of annexin V-PE for 30 min in the dark at 37° C. Flow cytometric analysis was immediately performed using a guava easyCyte™ 8 Instrument (Merck Millipore, Darmstadt, Germany).
(§2) The effect of inducing apoptosis of Chang liver cells was measured in the same manner as in Example 11-2, except that as target cell lines, normal Chang liver cells and hepatocellular carcinoma cell lines, Hep3B, HepG2, Huh7, and SK-HEP-1 were used, and as a reference drug, 5-FU® (IC50: 40 μM) was used.

[6] = test system: Huh7 cells; assay: Induction of apoptosis, Annexin V/7-AAD staining; format: cell-based, human; conditions: example 20-2
Experimental: as §1, §2

[7] = test system: SK-Hep-1 cells; assay: Induction of apoptosis, Annexin V/7-AAD staining; format: cell-based, human; conditions: example 20-2
Experimental: as §1, §2

[8] = test system: Hep3B cells; assay: Induction of apoptosis, Annexin V/7-AAD staining; format: cell-based, human; conditions: example 20-2
Experimental: as §1, §2

[9] = test system: SK-Hep-1 cells; assay: Transwell migration assay; format: cell-based, human; conditions: 24 hrs, compared with vehicle and non-permeable SOCS3
Experimental: (§3) The lower surface of Transwell inserts (Costar) was coated with 0.1% gelatin, and the membranes were allowed to dry for 1 hr at room temperature. The Transwell inserts were assembled into a 24-well plate, and the lower chamber was filled with growth media containing 10% FBS and FGF2 (40 ng/ml). Cells were added to each upper chamber at a density of 5×10^5, and the plate was incubated at 37° C. in a 5% CO2 incubator for 24 hrs. Migrated cells were stained with 0.6% hematoxylin and 0.5% eosin and counted.

[10] = test system: HepG2 cells; assay: Transwell migration assay; format: cell-based, human; conditions: 24 hrs, compared with vehicle and non-permeable SOCS3
Experimental: as §3

[11] = test system: Huh-7 cells; assay: Transwell migration assay; format: cell-based, human; conditions: 24 hrs, compared with vehicle and non-permeable SOCS3
Experimental: as §3

[12] = then 10 uM protein 1 hour, listed as aMTD165/SD-fused SOCS3 recombinant proteins

B1: HM165S3B: His-tagged recombinant protein of aMTD165, human SOCS3 and solubilization domain B; prototype improved cell-permeable SOCS3 (protein)
chain: MGSSHHHHHHSSGLVPRGSHMALAVPVALAIVPVTHSKFPAAGMETSRPLDTSLRLKTFSSKSEYQLVVNAVRKLQESGFYWSAVTGGEANLLLSAEPAGTFLIRDSSDQRHFFTLSVKTQSGTKNLRIQCEGGSFSLQSDPRSTQPVPRFDCVLKLVHHYMETPPPGAPSFPSPPTEPSSEVPEQPSAQPLPGSPPRRAYYIYSGGEKIPLVLSRPLSSNVATLQHLCRKTVNGHLDSYEKVTQLPGPIREFLDQYDAPLGSMAEQSDKDVKYYTLEEIQKHKDSKSTWVILHHKVYDLTKFLEEHPGGEEVLGEQAGGDATENFEDVGHSTDARELSKTYIIGELHPDDRSKIAKPSETL
modifications: Amino acid sequence of HM165S3B
Question: What does the source list for B1?
Answer: protein uptake after proteinase K pretreatment ([1]; then 10 uM protein 1 hour): essentially unaffected; protein uptake after proteinase K pretreatment [1, 12]: independent to cell surface receptor; protein uptake after taxol pretreatment ([1]; then 10 uM protein 1 hour): essentially unaffected; protein uptake after taxol pretreatment [1, 12]: not due to endocytosis; protein uptake after antimycin (ATP depletion) ([1]; 1 mM ATP and 10 uM antimycin 2 hours, then 10 uM protein 1 hour): essentially unaffected; protein uptake after EDTA pretreatment ([1]; 100 mM EDTA 3 hours, then 10 uM protein 1 hour): blocked; protein uptake at low temperature ([1]; 4° C. vs 37° C., 10 uM protein 1 hour): blocked; tumor growth inhibition at day 21 [2]: 80%; tumor growth inhibition at day 35 ([2]; 2 weeks after termination): 70%; induction of cell death (TUNEL) [3]: induced death of the largest number of cancer cells; biodistribution / tumor accumulation [4]: delivered to every part of the body at 5 minutes; also recorded: a large amount of the proteins were accumulated only in tumor; induction of apoptosis (Annexin V), normal Chang liver cells [5]: dose not induced apoptosis in normal cells; induction of apoptosis (Annexin V), Huh7 [6]: considerably efficient inducer of apoptosis; induction of apoptosis (Annexin V), SK-HEP-1 [7]: considerably efficient inducer of apoptosis; induction of apoptosis (Annexin V), Hep3B [8]: considerably efficient inducer of apoptosis; Transwell migration, SK-Hep-1 [9]: significant inhibitory effect on their Transwell migration; Transwell migration, HepG2 [10]: significant inhibitory effect on their Transwell migration; Transwell migration, Huh-7 [11]: significant inhibitory effect on their Transwell migration

— patent US10385103B2, “Cell-permeable (ICP)-SOCS3 recombinant protein and uses thereof” (CELLIVERY THERAPEUTICS, INC., priority 2014, dated 2019)
